In the RNAGym collection of RNA variant scans (doi:10.1073/pnas.2313332121):

B1: TPR t1 (parent)
chain: GACCAAUCUGCCCUCAGAGCUCGAGAACAUCUUCGGAUGCAGAGGAGGCAGGCUUCGGUGGCGCGAUAGCGCCAACGUCCUCAACCUCCAAUGCAUCCCACCACAUGAUGAUGCCUGAAGAGCCUUGGUUUUUUG

Variants of: B1
Assay: polymerase ribozyme fitness, log enrichment relative to wild type (log ratio); higher = more active; in vitro selection for triplet polymerase activity
How it was run: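 After PCR construction and transcription, each subunit's mutant library from a heterodimeric triplet polymerase ribozyme was annealed with a biotinylated primer, the partner subunit and triplets. Incubation was frozen, at −7 °C, and extended constructs were gel-excised, bound to streptavidin beads and amplified by RT-PCR, in one selection round done in triplicate. Fitness is the logarithm of a genotype's enrichment divided by that of the wild type, from inverse-variance-weighted replicate averages of Illumina-sequenced inputs and outputs. The base of the logarithm is 2, and genotypes needed ≥10 input reads and ≥1 read per output.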

Row | Variant | polymerase ribozyme fitness (log ratio)
1 | C88U A100U G120A | -0.615
2 | C88G C102U G117U | -6.89
3 | C88U C104U | 0.689
4 | C88A G113C G122A U129A | -5.29
5 | C86U G110A A111C | -4.3
6 | A91C G127C | -2.93
7 | C89G G93A C94G C124G G128C | -7.66
8 | U92C A118U | -0.718
9 | A90C U106A A108G | -2.24
10 | C89A G128C | -4.25
11 | C86U G110U | -1.02
12 | C88G G107A U130C | -6.86
13 | C89A G93A G120A | -1.81
14 | A90G C114A | -1.4
15 | U87C C99A C101U U116C | -6.81
16 | C86U A100U G110A U129G | -3.54
17 | U92C G117A | -2.67
18 | A90U G113A G128A | -3.47
19 | A91G G110U | -2.66
20 | C89G C94G | -3.06
21 | U92C G120U | 0.184
22 | C89A C101A G117A | -5
23 | C86G A91G | -1.96
24 | U92A A118U | -1.95

Row | Variant | polymerase ribozyme fitness (log ratio)
25 | C89U C104A | -1.84
26 | U87A C99U | -3.14
27 | U87C G110U | -0.496
28 | U87C C99U U129G | -3.62
29 | C88G G120A A121C G135U | -0.939
30 | A91U A111C | -2.44
31 | C88U C94U | -1.32
32 | A90U C97U | -2.38
33 | C88U A119G | 1.04
34 | C88G G110C | -5.26
35 | C88A U106A | -0.303
36 | A90U G93U | -1.11
37 | U87A U106A G113A | -2.17
38 | C89U A108G C114U | -4.44
39 | A90C C97A C99G G113A G122U | -7.3
40 | A91G C104A | -2.34
41 | U87A G110C | -3.47
42 | A91C C114G | -2.5
43 | C89A C114G | -2.82
44 | C89A C114U | -0.329
45 | U92A U131G | -2.59
46 | A91G G93C G120C | -2.18
47 | C86A A95G | -0.915
48 | A91U G128U | -3.95

Row | Variant | polymerase ribozyme fitness (log ratio)
49 | C86U A111G C123A G127A | -2.33
50 | A91G C101U G110A | -2.85
51 | C86A A111C | 0.315
52 | A91G C102A C104A U109A | -5.59
53 | U92A G93C | -2.69
54 | U87A C88A G110U G127A | -3.99
55 | U87A G120A | 0.663
56 | C88A C115U | -0.599
57 | C86A U96C | -0.678
58 | C89G C124A | 0.877
59 | U87A A111G G127C U131A | -3.23
60 | C88A G135U | -0.929
61 | C89G G127U | -2.9
62 | C86A U112A | 0.808
63 | C86U A91G C98U | -2.63
64 | A90C C104A | -3.78
65 | C88G U131C | -0.249
66 | C88A A111U | -4.33
67 | C88U A105G C123U | -1.46
68 | A91U U132C | -1.79
69 | C89U A105U | -2.8
70 | C89G U125A | -2.07
71 | C88U G120A G128A | -1.29
72 | C89U C101A | -1.39

Row | Variant | polymerase ribozyme fitness (log ratio)
73 | C89G U92A G122A | -4.41
74 | U92C U112A | -0.53
75 | C86G G128A | -2.15
76 | A90U G117C | -1.43
77 | U87G G113C | -2.26
78 | C86U C124A | 1.32
79 | C89G G113C G122U | -2.99
80 | A91C C123A U133G | -1.07
81 | A90C G120U | -1.31
82 | C88G U106G | -2.4
83 | C88U U116C G120C | -0.613
84 | A90G U112G | 1.3
85 | C89G C123G | 0.45
86 | C88G | -0.581
87 | C88A | -0.325
88 | C88U | -0.0459
89 | C86A U132C U133A | -1.36
90 | C88G G117C | -4.47
91 | C86U U131G | -0.498
92 | A91C U133A | -0.906
93 | C88A C101U | -0.505
94 | C89A G113C | -1.8
95 | U87A A119U G128A U131G | -1.07
96 | C86U G93A C101G G122A | -3.73

Row | Variant | polymerase ribozyme fitness (log ratio)
97 | A90G A119U | 0.257
98 | U87C U96A | 0.252
99 | A90C C102U | -4.08
100 | C88A U106A U109A U126A U131G | -5.92
101 | A90C C97U G113A | -2.12
102 | C89G U109G | -5.16
103 | C89G U109A | -5.37
104 | C86G A111G G135A | -0.134
105 | C86U G107U | -5.23
106 | C86A C101U | -0.0895
107 | C86U U112A C123U | 0.628
108 | A90U C114G A118G | -3.15
109 | C88U C89A A121U G122A | -1.15
110 | C88A C94G U112C G120C | -1.09
111 | C88A U96G | -0.386
112 | C88A U96C | -0.897
113 | C88A C94A G117C | -5.02
114 | C89G A90G G127C | -2.22
115 | C86G U112A G117U G120A U126A | -5.82
116 | U87G A119G | 1.67
117 | U92A C104U | -3.56
118 | C89A G93A | -2.99
119 | A90U U133G | -1.46
120 | A91U G120U | -1.93

Row | Variant | polymerase ribozyme fitness (log ratio)
121 | U92A C101A | -3.47
122 | U87G G120A | 0.0419
123 | C89A G117U | -4.53
124 | C89A G117C | -4.96
125 | C89A G117A | -1.73
126 | U87C C89G | -1.1
127 | C89A A111U G113A | -5.69
128 | C89A C94A C104U G110A | -4.47
129 | U87C U126G | -1.22
130 | U92C U106G G135C | -3.67
131 | C86A U116G | -2.89
132 | U87G U129C | 0.0365
133 | U87G U106G | -1.41
134 | U87A C89U C123A C124G | 1.56
135 | C88U C115A | -0.441
136 | C88U G120U U126G | -3.22
137 | C89G U126A | -2.85
138 | C89U C124A | 0.152
139 | C89U C124U | 1.37
140 | U87A U106G | -1.35
141 | C89U G117A U129A | -3.55
142 | A91C U129A | -2.78
143 | C89A A121G | 1.44
144 | C89A C124A | 0.985

Row | Variant | polymerase ribozyme fitness (log ratio)
145 | A91C C98G G113A | -5.51
146 | C85U U133A | -0.839
147 | C88G G107U A111C A121U U125A | -3.56
148 | U87A C123A | 0.223
149 | C89U A90G | 0.141
150 | C88G G128C | -3.43
151 | C86G C88U A105G | -4.95
152 | A91C C114U G127A | -4.1
153 | C86U C102A U112A C114A | -4.14
154 | C89A G120U | -1.79
155 | A91G G117U | -3.4
156 | U87C A95U C102A C124A G128C | -3.08
157 | A91U C101A | -2.72
158 | U87G C94A G120U | -0.366
159 | U87G U109A | -3.08
160 | C88G C94A A111C U133A | -3.52
161 | U87G U92A G110A | -4.75
162 | U87A C102U C104A | -1.05
163 | C86A C98U | -0.468
164 | C85U U130A | -1.86
165 | C86G G93A G113C | -4.01
166 | C88U G120C | 0.853
167 | C88U G120U | 0.291
